Measurements reported in US9206432B2, “Sulfonylurea-responsive repressor proteins” (priority 2008, dated 2015).
Like-named read-outs stand apart in the source and are kept apart here.

B1: L1-41: library L1 hit with reverse repressor activity (SEQ ID NO: 1206-1213) (protein)
chain: MGSRLDKSKVINSALELLNEVGIEGLTTRKLAQKLGVEQPTLYWHVKNKRALLDALAIEMLDRNQTHFCPLEGESWQDFLRNNAKSWRCALLSHRDGAKVMLGTRNTEKQYETAENGLAFLCQQGFSLENALYACRAVWTFTLGCVLDDQETQVAKEERETPTSDSMPPLLRQAMELKDHQGAEPAFLFGLELIICGLEKQLKCESGS
modifications: rSuR L1-41
B2: L1-36: library L1 hit with reverse repressor activity (SEQ ID NO: 1206-1213) (protein)
chain: MGSRLDKSKVINSALELLNEVGIEGLTTRKLAQKLGVEQPTLYWHVKNKRALLDALAIEMADRHHTHFCPLEGESWQDFLRNAAKSMRCALLSHRDGAKVRLGTAWTEKQYETHENVLAFLCQQGFSLENALYALKAVSGFTLGCVLKDQEMQVAKEERETPTTDSMPPLLRQATELVDHQGAEPAFLFGLELIICGLEKQLKCESGS
modifications: rSuR L1-36
B3: L1-25: library L1 hit with reverse repressor activity (SEQ ID NO: 1206-1213) (protein)
chain: MGSRLDKSKVINSALELLNEVGIEGLTTRKLAQKLGVEQPTLYWHVKNKRALLDALAIEMLDRHATHFCPLEGESWQDFLRNTAKSMRCALLSHRDGAKVLLGTATTEKQYETLENLLAFLYQQGFSLENALYAWQAVWRFTLGCVLIDQETQVAKEERETPTTDSMPPLLRQAVELKDHQGAEPAFLFGLELIICGLEKQLKCETGS
modifications: rSuR L1-25
B4: L1-7: SU-responsive TetR(B) variant, library L1 hit, SEQ ID NO: 4 (protein)
chain: MGSRLDKSKVINSALELLNEVGIEGLTTRKLAQKLGVEQPTLYWHVKNKRALLDALAIEMLDRHNTHFCPLEGESWQDFLRNNAKSWRCALLSHRDGAKVVLGTAITEKQYETHENPLAFLCQQGFSLENALYAIAAVRRFTLGCVLVDQERQVAKEERETPTTDSMPPLLRQASELQDHQGAEPAFLFGLELIICGLEKQLKCERGS
modifications: Sulfonylurea responsive repressor L1-07
B5: L1-33: library L1 hit with reverse repressor activity (SEQ ID NO: 1206-1213) (protein)
chain: MGSRLDKSKVINSALELLNEVGIEGLTTRKLAQKLGVEQPTLYWHVKNKRALLDALAIEMLDRHATHFCPLEGESWQDFLRNNAKSMRCALLSHRDGAKVQLGTAATEKQYETLENKLAFLCQQGFSLENALYAHSAVTQFTLGCVLRDQEGQVAKEERETPTTDSMPPLLRQARELRDHQGAEPAFLFGLELIICGLEKQLKCESGS
modifications: rSuR L1-33
B6: L1-39: library L1 hit with reverse repressor activity (SEQ ID NO: 1206-1213) (protein)
chain: MGSRLDKSKVINSALELLNEVGIEGLTTRKLAQKLGVEQPTLYWHVKNKRALLDALAIEMMDRHQTHFCPLEGESWQDFLRNTAKSYRCALLSHRDGAKVILGTRWTEKQYETRENVLAFLCQQGFSLENALYAWAAVGPFTLGCVLRDQERQVAKEERETPTTDSMPPLLRQALELMDHQGAEPAFLFGLELIICGLEKQLKCESGS
modifications: rSuR L1-39
B7: L1-18: library L1 hit with reverse repressor activity (SEQ ID NO: 1206-1213) (protein)
chain: MGSRLDKSKVINSALELLNEVGIEGLTTRKLAQKLGVEQPTLYWHVKNKRALLDALAIEMLDRHLTHFCPLEGESWQDFLRNNAKSMRCALLSHRDGAKVWLGTGFTEKQYETKENRLAFLCQQGFSLENALYAIRAVSRFTLGCVLQDQEPQVAKEERETPTTDSMPPLLRQAVELFDHQGAEPAFLFGLELIICGLEKQLKCESES
modifications: rSuR L1-18
B8: L1-20: SU-responsive TetR(B) variant, library L1 hit, SEQ ID NO: 6 (protein)
chain: MGSRLDKSKVINSALELLNEVGIEGLTTRKLAQKLGVEQPTLYWHVKNKRALLDALAIEMMDRHQTHFCPLEGESWQDFLRNNAKSMRCALLSHRDGAKVFLGTAWTEKQYETVENLLAFLCQQGFSLENALYALNAVATFTLGCVLWDQEKQVAKEERETPTTDSMPPLLRQAHELGDHQGAEPAFLFGLELIICGLEKQLKSESGS
modifications: Sulfonylurea responsive repressor L1-20
B9: L1-21: library L1 hit with reverse repressor activity (SEQ ID NO: 1206-1213) (protein)
chain: MGSRLDKSKVINSALELLNEVGIEGLTTRKLAQKLGVEQPTLYWHVKNKRALLDALAIEMLDRHATHFCPLEGESWQDFLRNNAKSFRCALLSHRDGAKVCLGTAGTEKQYETLENCLAFLCQQGFSLENALYARSAVVCFTLGCVLFDQEMQVAKEERETPTTDSMPPLLRQAAELLDHQGAEPAFLFGLELIICGLEKQLKCESGS
modifications: rSuR L1-21

Test system: lacZ under control of the tetA promoter (PtetA) in E. coli KM3
Assay type: cell-based
Conditions: for relative β-galactosidase activity, inducer atc: anhydrotetracycline (0.4 μM)
[1] = Table 6, reverse repressor hits
[2] = Table 6, reverse repressor hits, chlorimuron, same plate assay format (20 ppm)
[3] = Table 6, reverse repressor hits, chlorsulfuron, same plate assay format (20 ppm)
[4] = Table 6, reverse repressor hits, ethametsulfuron, same plate assay format (20 ppm)
[5] = Table 6, reverse repressor hits, metsulfuron, same plate assay format (20 ppm)
[6] = Table 6, reverse repressor hits, nicosulfuron, same plate assay format (20 ppm)
[7] = Table 6, reverse repressor hits, rimsulfuron, same plate assay format (20 ppm)
[8] = Table 6, reverse repressor hits, sulfometuron, same plate assay format (20 ppm)
[9] = Table 6, reverse repressor hits, thifensulfuron, same plate assay format (20 ppm)
[10] = Table 6, reverse repressor hits, tribenuron, same plate assay format (20 ppm)
[11] = Table 4, chlorimuron 20 ppm, 48 hrs at 30° C.
[12] = Table 4, chlorsulfuron 20 ppm, 48 hrs at 30° C.
[13] = Table 4, ethametsulfuron 20 ppm, 48 hrs at 30° C.
[14] = Table 4, metsulfuron 20 ppm, 48 hrs at 30° C.
[15] = Table 4, nicosulfuron 20 ppm, 48 hrs at 30° C.
[16] = Table 4, rimsulfuron 20 ppm, 48 hrs at 30° C.
[17] = Table 4, sulfometuron 20 ppm, 48 hrs at 30° C.
[18] = Table 4, thifensulfuron 20 ppm, 48 hrs at 30° C.
[19] = Table 4, tribenuron 20 ppm, 48 hrs at 30° C.

Row | Molecule | relative β-galactosidase activity, inducer atc [1] | relative β-galactosidase activity, inducer Ci [2] | relative β-galactosidase activity, inducer Cs [3] | relative β-galactosidase activity, inducer Es [4] | relative β-galactosidase activity, inducer Ms [5] | relative β-galactosidase activity, inducer Ns [6] | relative β-galactosidase activity, inducer Rs [7] | relative β-galactosidase activity, inducer Sm [8] | relative β-galactosidase activity, inducer Ts [9] | relative β-galactosidase activity, inducer Tb [10] | relative β-galactosidase activity, inducer Ci [11] | relative β-galactosidase activity, inducer Cs [12] | relative β-galactosidase activity, inducer Es [13] | relative β-galactosidase activity, inducer Ms [14] | relative β-galactosidase activity, inducer Ns [15] | relative β-galactosidase activity, inducer Rs [16] | relative β-galactosidase activity, inducer Sm [17] | relative β-galactosidase activity, inducer Ts [18] | relative β-galactosidase activity, inducer Tb [19]
1 | B1 | 4.21 | 0.39 | 0.61 | 0.18 | 0.56 | 2.75 | 4.05 | 0.67 | 1.46 | 1.41 | – | – | – | – | – | – | – | – | –
2 | B2 | 1.70 | 0.21 | 0.24 | 0.20 | 0.38 | 1.81 | 1.84 | 0.50 | 0.48 | 0.57 | – | – | – | – | – | – | – | – | –
3 | B3 | 1.22 | 0.11 | 0.28 | 0.13 | 0.32 | 1.21 | 1.08 | 0.63 | 0.64 | 1.72 | – | – | – | – | – | – | – | – | –
4 | B4 | – | – | – | – | – | – | – | – | – | – | 16.5 | 3.1 | 0.1 | 0.2 | 0.1 | 0.2 | 6.4 | 0.1 | 0.2
5 | B5 | 8.25 | 0.76 | 3.74 | 2.11 | 4.29 | 5.34 | 10.32 | 5.02 | 5.51 | 4.71 | – | – | – | – | – | – | – | – | –
6 | B6 | 4.92 | 0.49 | 0.89 | 0.60 | 0.75 | 3.03 | 4.72 | 0.91 | 1.42 | 0.97 | – | – | – | – | – | – | – | – | –
7 | B7 | 2.35 | 0.36 | 1.22 | 0.37 | 0.79 | 1.44 | 2.55 | 0.94 | 1.13 | 1.65 | – | – | – | – | – | – | – | – | –
8 | B8 | – | – | – | – | – | – | – | – | – | – | 13.5 | 22.0 | 15.0 | 12.4 | 1.6 | 2.0 | 6.0 | 2.6 | 2.6
9 | B9 | 2.81 | 0.07 | 0.89 | 0.61 | 0.89 | 2.74 | 2.31 | 2.39 | 0.79 | 2.13 | – | – | – | – | – | – | – | – | –
